In the nanobody polyreactivity screen of Harvey et al. (2022):

Assay: yeast display, Sf9 membrane polyspecificity reagent, FACS + sequencing; frameworks hold sequencing errors
Procedure, shortened: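 Galactose induction of a Saccharomyces cerevisiae BJ5465 synthetic nanobody display library ran 36–48 hours. The cells were then stained for 1 hour at 4 °C with 10% biotinylated, detergent-solubilized Sf9 membrane reagent, pulled down on streptavidin microbeads and FACS-sorted into low and high (top ~1%) gates on expression and reagent-binding fluorescence. Labels for polyreactivity follow the gate of origin.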

Row | Sequence | polyreactivity (PSR sort gate)
1 | QVQLVESGGGLVQAGGSLRLSCAASGFTFTYYAMGWNRQEPGKERELVAAISGNGGSTYYADSVKGRFTISRDNAKNTVYLQMNRLKPEDTAVYYCNALPTSVGRWYRGDYWGQGTLVTVSS | high polyreactivity
2 | QVQLVESGGGLVQTGGSLRLICAASGRTFAVNDMGWYRQARGKERELVAAITWRGDSTYYADSVKGRFTISRDNAKNTVYLQMISLKPEDTAVYYCNAYYDGDWRYTSLETGEHWGQGTQVTVSS | low polyreactivity
3 | QVQLVESGGGLVQAGGSLRLSCAASGITFWVYVKGWYRQAPGKEREFVADISSGAGTTYYADSVKGRFTISRDNAKNTVYLQMNSLKPEDTAVYYFAARRWWPQWYDYWGQGTQVTVSS | high polyreactivity
4 | QVHLVESGGGLVQAGGSLRLSCAASGIIFSDYALGWYRQAPGKERELVAAITSSGCSTYYADSVKGRFTISRDNAKNTVYLQMNSLKPEDTAVYYCNARYRRKSWRPFDYWGQGTQVTVSS | high polyreactivity
5 | QVQLVESGRALVQAGGSLRLSCAASGFTFWTNTMGWYIQAPGKERELVAAITSTGGTTYYADSVKGRFTISRDNAKNTVYLQMNSLKAEDTAVYYCAAELGGYVASYYYPGYDYWGQGTQVTVSS | low polyreactivity
6 | QVQLVESGGGLVQAGGSLRLICAASGFIFGGYGMGWYRQAPGKERELVAVITASGGSTYYADSVKGRFTISRDNAKNTVYLQMNSLKPEDTAVYYCAARVGRYGYSQYYYWGQGTQVTVSS | high polyreactivity
7 | QVQLVESGGGLVQAGGSHRISCAASGRTFARYVMGWYRQAPGKERELVAAISRSGGTYYADSVKGRFTISRDNAKNTVYLQMNSLKPEDTAVYYCRIPSHGGVYWGQGTQVTVSS | high polyreactivity
8 | QVQLVESGGGLVQAGGSLRLSCAASGSIFFVNAMGWYRQAPGKERELVAAITSGGNTNYADSVKGRFTISRDNAKNTVYFQMNSLKPEDTAVFYSATSYYLAYRSITTYDYWGQGTQVTVSS | low polyreactivity
9 | QVQLVESGGGLVQAGGSLRLSCAASGIIFARYAMGWYRQAPGKERELVAAITSGGGTSYADSVKGRFTISRDNAKNTVYLQMNSLKPEDTAVYYCNADGYLAERFVIRLDEYRDYDYWGQGTQVTVSS | low polyreactivity
10 | QVQLVESGGGLVQAGGSLSLSCAASGSTFRYYTMGWYRQAPGKERELVAAISWTGGGTYYADSVKGRFTISRDNAKNTVYLQMNSLKPEDTAVYYCAASYYYELFRFDYWGQGTQVTVSS | high polyreactivity
11 | QVQLVESGGGLVQAGGSLRLSCAASGRISAYNAMGWYRQAPGKERELVAGISTRTGSTYYADSVKGRFTISRDNAKNTVYLQMNSLKPEDTAVYYGAAYFWGVYFFGMDYWGQGTQVTVSS | low polyreactivity
12 | QVQLQESGGVQAGGSLRLSCAASGYITRSDVMGSYRQAPGKERELVATINNGTMTYYADSEKGRYTISRDNAKKTVYLQKNSQKPEDTAVHYCAVDQSDTDSLYYWGQGTQVTVSS | low polyreactivity
13 | QVQLVESGGGLVQAGGSLRLSCAASGRIFAYNTMGWYRQAPGKERELVAGITSGGSTNYADSVKGRFTISRDNAKNTVYLQMNSLQPEDTAVYYCAAVGRWGVTGSHHDAYDYWGQGTQVTVSS | high polyreactivity
14 | QVQLVESGGGLVQAGGSLRLSCAASGLTFVKYAMGWYRPAPGKERELVAAISRSGGRTYYADSVKGRFTISRDNAKNTVYLQMNSLKPEDTAVYYCNADHVRGNHGYDYWGQGTQVTVSS | high polyreactivity
15 | QVQLVESGGGLVQAGGSLRLSCAASGFTFTAYAMGWYRQAPGKERELVAAISNRGGRTYYADSVKGRFTFSRDNAKNTVYLQMNSLKPEDTAVYYCAAGYSYAQYSYPFLSFAFGYWGQGTQVTVSS | high polyreactivity
16 | QVQLVESGGGLVQAGGSLRLSCAASGIIFIVNSMGWYRQAPGKERELVADISENGGDTYYADSVKGRFTISRDNAKNTVYLQMNSLKPEDSAVYYCAKSGEPYTRFDYWGQGTQVTVSS | low polyreactivity
17 | QVQLVESGGGLVQAVGSLRLSCAASGSTFAYYAMGWYRQAPGKEREFVAAISTRGGSTYYADSVKGRFTISRDNAKNTVYLQLISLKQEDTAFYYCAAGYFIYSWRIRFDHWGQGTQVTVSS | high polyreactivity
18 | QVQLVESGGGLVQAGGSLRLSCPASGSTFYGYVMGGYRQAPGKERELVAAISGSTYYADSVKGRFTISRDNAKNTVYLQMNSLKPEDTAVYYCNADDYRSYGGDSWGQGTQVTVSS | low polyreactivity
19 | QVKLVESGGGLVQAGGSLRLRCAASGIIFDYYAMGWYRQAPGKERELVAAISKRGGSTYYADSVKGRFTISRDNAKNTVYLQMNSLKPEDTAVYYCAAVYAREAKRYDYWGQGTQVTVSS | high polyreactivity
20 | QVQLVESGGGLVQAGGSLRLSCAASGLNLKRYAMGCYTQAPGKERELVAAISKSGGSTYYADSVKGRFTISRDNAKNTVYLQMNSLKPEDTAVYYCAADSYNLWDDYWGQGTQVTVSS | low polyreactivity
21 | QVQLVESGGGLVQAGGSLRVSCAASGSTFTGYAMGWYRQAPGKERELVAAISRGGSTNYADSVKGRFTISRDNAKNTVYLQMNSLKPEDTAVYYCAAETYYFGYGYWGQGTQVTVSS | high polyreactivity
22 | QVQLVESGGGLVQAGGSLRLSCAASGSTFSSYVMGWYRKAPVKERELVAAISSIGGSTYFADSVKGRFTISRDNAKNTVYLQMNSLKPEDTAVYFCAAEPPGSTYEGGYWGQGTQVTVSS | low polyreactivity
